Patent US20120045393A1 (priority 2009, published 2012)
Like-named read-outs stand apart in the source and are kept apart here. Non-standard residues stand in square brackets, D forms with d. Primed or numbered codes have the meaning given here. DO3A10CM(3) = metal chelator group attached at the N-terminus (X in table rows); DO3A10CM″ = chelating group at the N-terminus (X in the sequence tables); Bpa = N[C@@H](Cc1ccc(C(=O)c2ccccc2)cc1)C(=O)O; d2Nal = N[C@H](Cc1ccc2ccccc2c1)C(=O)O; DO3A10CM = not defined here; Bpa4 = non-natural residue; Amfe4 = not defined here; Tha = not defined here; azaGly = NNC(=O)O; Sar = CNCC(=O)O

Legend:
[1] = test system: EFO-27 human ovarian cancer cells (LHRH binding sites); experiment: Saturation binding of radiolabeled LHRH-II analogs to EFO-27 cells
Procedure: Saturation binding of ^125I-LHRH II and the ^177Lu-labeled LHRH II analog ^177Lu-BRU-2666 to EFO-27 cells was carried out to determine the binding affinity, binding capacity (Bmax) and receptor numbers. The data were analyzed for a single binding site using Prizm software.

[2] = test system: EFO-27 cells; experiment: Internalization/efflux studies in EFO-27 cells; type: cell-based, human
Procedure, shortened: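 EFO-27 cells incubated 40 min at 37° C with ^177Lu-LHRH II or ^125I-LHRH II ([^125I-Tyr^8]BRU-2477) at 3.0 μCi/mL, washed, then kept in fresh medium. At 0, 15, 30, 60 and 120 min radioactivity split into membrane-bound, internalized and efflux fractions.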

[3] = liver homogenate; details: female Tac:NCr:Foxn1^nu/nu mice, 37° C., up to 60 min
[4] = molecular target: LHRH receptor (LHRH binding sites) on EFO-27 human ovarian cancer cells (human); experiment: competition with [125I-Tyr8]BRU-2477, EFO-27 cells
[5] = molecular target: LHRH binding sites on EFO-27 human ovarian cancer cells (human); experiment: competition with [125I-Tyr8]BRU-2477 on EFO-27 cells
[6] = molecular target: LHRH binding sites on EFO-27 human ovarian cancer cells (human); experiment: as above; remark: listed apart in the source
[7] = molecular target: LHRH receptor (LHRH binding sites) on EFO-27 human ovarian cancer cells (human); experiment: competition with [125I-Tyr8]BRU-2477 for binding to EFO-27 cells
[8] = molecular target: LHRH receptor (LHRH binding sites) on EFO-27 human ovarian cancer cells (human); experiment: as above; remark: listed apart in the source
[9] = molecular target: LHRH receptor (LHRH binding sites) on EFO-27 human ovarian cancer cells (human); experiment: as above; remark: listed apart in the source
[10] = molecular target: LHRH receptor (LHRH binding sites) on EFO-27 human ovarian cancer cells (human); experiment: internalization/efflux study, cell-associated radioactivity, EFO-27 cells
[11] = molecular target: LHRH receptor (LHRH binding sites) on EFO-27 human ovarian cancer cells (human); experiment: direct binding of 177Lu-labeled peptide to EFO-27 cells, single concentration
[12] = molecular target: LHRH receptor (LHRH binding sites) on EFO-27 human ovarian cancer cells (human); experiment: internalization/efflux study, cell-associated radioactivity, EFO-27 cells, 200 fmoles added/well
[13] = molecular target: T1, LHRH binding sites on EFO-27 human ovarian cancer cells (human); experiment: competition with [125I-Tyr8]BRU-2477 on EFO-27 cells
T1 chain: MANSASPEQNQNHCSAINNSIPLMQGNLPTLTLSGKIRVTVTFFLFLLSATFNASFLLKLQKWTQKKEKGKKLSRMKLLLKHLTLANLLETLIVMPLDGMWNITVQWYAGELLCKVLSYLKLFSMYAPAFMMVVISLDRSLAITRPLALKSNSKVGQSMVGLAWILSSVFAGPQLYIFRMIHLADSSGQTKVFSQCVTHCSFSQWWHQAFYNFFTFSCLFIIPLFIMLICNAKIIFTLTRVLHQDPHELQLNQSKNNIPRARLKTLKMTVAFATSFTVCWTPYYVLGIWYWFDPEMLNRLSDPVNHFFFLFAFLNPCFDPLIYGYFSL

[14] = molecular target: T1, LHRH binding sites (presumed LHRH …); experiment: as above
[15] = molecular target: T1, LHRH binding sites (presumed LHRH …); experiment: as above
[16] = molecular target: T1, LHRH binding sites (presumed LHRH …); experiment: as above
[17] = molecular target: T1, LHRH binding sites (presumed LHRH …); experiment: as above
[18] = molecular target: T1, LHRH binding sites (presumed LHRH …); experiment: as above
[19] = saturation binding, single binding site

N=C(N)NCCC[C@@H](NC(=O)[C@H](Cc1c[nH]cn1)NC(=O)[C@H](CO)NC(=O)[C@H](Cc1c[nH]c2ccccc12)NC(=O)[C@H](Cc1c[nH]cn1)NC(=O)[C@@H]1CCC(=O)N1)C(=O)N[C@@H](Cc1c[nH]c2ccccc12)C(=O)N[C@@H](Cc1ccc(O)c(I)c1)C(=O)N1CCC[C@H]1C(=O)NNC(N)=O [125I-LHRH II, Darg^6,^125I-Tyr^8,azaGly^10-LHRH-II, reference compound]
receptor numbers [1]: 85×10^6 /cell | Kd [1, 19]: 1.29 µM | Max. binding (Bmax) [1, 19]: 141 pmoles/10^6 cells | Receptors/cell [1, 19]: 85 ×10^6 | Kd ([1]; single binding site): 1.29 µM | binding capacity (Bmax) ([1]; single binding site): 141 pmoles/million cells | Cell associated activity at 0 h % Efflux ([2]; 0 h): 19% | Cell associated activity at 0 h % Intern ([2]; 0 h, internalized): 36.7% | Cell associated activity at 0 h % Memb ([2]; 0 h, membrane bound): 44.6% | Cell associated activity at 2 h % Efflux ([2]; 2 h): 87.1% | Cell associated activity at 2 h % Intern ([2]; 2 h, internalized): 4.9% | Cell associated activity at 2 h % Memb ([2]; 2 h, membrane bound): 3.5% | initial internalization ([2]; % of total bound (cell-associated) radioactivity, T=0): 35.6% | Bound % ([2]; of added): 1.20% | Bound ([2]; per well): 1.87 fmol

pGlu-His-Trp-Ser-His-Darg-Trp-Tyr-Ψ(CH2N)-Pro-azaGly-NH2
not cleaved [3]: 100 ± 0 % remaining after 60 min; no metabolism

DO3A10CM-Dnal2-Arg-Trp-Ser-His-Darg-Trp-Bpa4-Pip-azaGly-NH2
fragment found [3]: Lu-DO3A10CM-Dnal2-Arg-Trp-Ser-His-Darg-Trp-Bpa4-Pip-OH

DO3A10CM-Dnal2-Arg-Trp-Ser-His-Darg-Trp-Bpa4-Thz-azaGly-NH2
not cleaved [3]: 98.5 ± 0.2 % remaining after 60 min; no metabolism was observed

XRWSHXWXPX (as printed: DO3A10CM-Dnal2-Arg-Trp-Ser-His-Darg-Trp-Bpa4-Pro-azaGly-NH2) [BRU-2813]
EC50 [4]: 0.33 µM | EC50 [5]: 0.33 µM | percent more potency than BRU-2666 [6]: 30% | EC50 [7]: 0.33 µM | EC50 [8]: 0.42 µM | EC50 [9]: 0.3 µM

XHWSHXWXPX (as printed: DO3A10CM-Dnal2-His-Trp-Ser-His-Darg-Trp-Bpa4-Pro-azaGly-NH2) [BRU-2666]
EC50 [4]: 0.47 µM | EC50 [5]: 0.47 µM | EC50 [6]: 2.6 µM | times more potent than the Sar1 analog (BRU-2443) [6]: 2 times | EC50 [9]: 0.39 µM

B1: ^177Lu-BRU-2756 (peptide)
peptide: DO3A10CM-[Sar][Amfe4]WSH[dR]W[Bpa]P[azaGly]-NH2
modifications: reading uncertain; also: 177Lu complexed by DO3A10CM, printed as 177Lu-DO3A10CM-Sar-Amfe4-Trp-Ser-His-Darg-Trp-Bpa4-Pro-azaGly-NH2
Bound % [10]: 5.1% | % Bound [11]: 5.17% | Bound fmoles [12]: 10.2 fmol

B2: ^177Lu-BRU-2757 (peptide)
peptide: XHWSHXWXPX
modifications: 177Lu held by the N-terminal DO3A10CM: 177Lu-DO3A10CM-Damfe4-His-Trp-Ser-His-Darg-Trp-Bpa4-Pro-azaGly-NH2
Bound % [10]: 9.5% | % Bound [11]: 11.1% | Bound fmoles [12]: 19 fmol

DO3A10CM-[d2Nal]RWSH[dR]W[Bpa4]-OH (reading uncertain) [BRU-3064]
EC50 [13]: 0.67 µM

DO3A10CM-[d2Nal]RWDH[dR]W[Bpa]P[azaGly]-NH2 (reading uncertain, AA4 Asp) [BRU-2954]
EC50 [14]: 4.2 µM

XRWNHXWXPX (DO3A10CM on N-terminus; AA1 Dnal2; AA6 Darg; AA8 Bpa4; AA10 azaGly-NH2, AA4 Asn) [BRU-2956]
EC50 [14]: 0.28 µM

DO3A10CM-[d2Nal]RWMH[dR]W[Bpa]P[azaGly]-NH2 (reading uncertain, AA4 Met) [BRU-2964]
EC50 [14]: 0.22 µM

DO3A10CM-[d2Nal]RWLH[dR]W[Bpa]P[azaGly]-NH2 (reading uncertain, AA4 Leu) [BRU-3113]
EC50 [14]: 1.13 µM

DO3A10CM-[d2Nal]RWWH[dR]W[Bpa]P[azaGly]-NH2 (reading uncertain, AA4 Trp) [BRU-3114]
EC50 [14]: 11.5 µM

{DO3A10CM(3)}-[Sar]HWSY[dR]W[Bpa]P[azaGly]-NH2 (AA5 Tyr) [BRU-2668]
EC50 [15]: 3.47 µM

{DO3A10CM(3)}-[Sar]HWSY[dR]L[Bpa]P[azaGly]-NH2 (AA5 Tyr, AA7 Leu) [BRU-2670]
EC50 [15]: 8.84 µM

{DO3A10CM″}-[Sar]WS[Tha][dR]W[Bpa]P[azaGly]-NH2 (reading uncertain) [BRU-2740]
EC50 [15]: 5.53 µM

DO3A10CM-[Sar]HWSH[dR]WRP[azaGly]-NH2 (reading uncertain, AA8 Arg) [BRU-2723]
EC50 [16]: 2.83 µM

DO3A10CM-[d2Nal]RWSA[dR]W[Bpa]P[azaGly]-NH2 (reading uncertain, AA5 Ala) [BRU-3028]
EC50 [15]: 1.09 µM

DO3A10CM-[d2Nal]RWSL[dR]W[Bpa]P[azaGly]-NH2 (reading uncertain, AA5 Leu) [BRU-3029]
EC50 [15]: 1.21 µM

XRFSHXWXPX (DO3A10CM on N-terminus; AA1 Dnal2; AA6 Darg; AA8 Bpa4; AA10 azaGly-NH2, AA3 Phe) [BRU-3106]
EC50 [17]: 0.43 µM

DO3A10CM-[d2Nal]RLSH[dR]W[Bpa]P[azaGly]-NH2 (reading uncertain, AA3 Leu) [BRU-3108]
EC50 [17]: 0.56 µM

XRRSHXWXPX (DO3A10CM on N-terminus; AA1 Dnal2; AA6 Darg; AA8 Bpa4; AA10 azaGly-NH2, AA3 Arg) [BRU-3111]
EC50 [17]: 0.25 µM

DO3A10CM-[Sar]HWSH[dR]WFP[azaGly]-NH2 (reading uncertain, AA8 Phe) [BRU-2730]
EC50 [16]: 12.9 µM

{DO3A10CM″}-[Sar]HWSH[dR]WHP[azaGly]-NH2 (AA8 His) [BRU-2763]
EC50 [16]: 13.6 µM

DO3A10CM-[Sar]HWSH[dR]WP[azaGly]-NH2 (not fully specified; reading uncertain) [BRU-2767]
EC50 [16]: 10 µM

GHWSHXWXPX (DO3A10CM on N-terminus; AA6 Darg; AA8 Bpa4; AA10 azaGly-NH2, AA1 Gly) [BRU-2733]
EC50 [18]: 1.18 µM

FHWSHXWXPX (DO3A10CM on N-terminus; AA6 Darg; AA8 Bpa4; AA10 azaGly-NH2, AA1 Phe) [BRU-2735]
EC50 [18]: 1.14 µM

XFWSHXWXPX (DO3A10CM on N-terminus; AA1 Sar; AA6 Darg; AA8 Bpa4; AA10 azaGly-NH2, AA2 Phe) [BRU-2738]
EC50 [18]: 1.22 µM

DO3A10CM-[Sar]YWSH[dR]W[Bpa]P[azaGly]-NH2 (reading uncertain, AA2 Tyr) [BRU-2814]
EC50 [18]: 2.24 µM

DO3A10CM-[Sar]KWSH[dR]W[Bpa]P[azaGly]-NH2 (reading uncertain, AA2 Lys) [BRU-2871]
EC50 [18]: 10 µM

{DO3A10CM(3)}-GPHWSH[dR]W[Bpa]P[azaGly]-NH2 (AA1 Pro) [BRU-2667]
EC50 [18]: 7.29 µM

GGHWSHXWXPX (DO3A10CM-Gly (linker) on N-terminus; AA6 Darg; AA8 Bpa4; AA10 azaGly-NH2, AA1 Gly) [BRU-2795]
EC50 [18]: 1.37 µM

RRWSHXWXPX (DO3A10CM on N-terminus; AA6 Darg; AA8 Bpa4; AA10 azaGly-NH2, AA1 Arg, AA2 Arg) [BRU-3050]
EC50 [18]: 0.31 µM
